This note sets out measurements from US20130142788A1 (published 2013).

For test [1], the target named is T1, recombinant mature dimeric myostatin (human and mouse (mature sequences 100% …, UniProt O08689 268-376)).
T1 sequence: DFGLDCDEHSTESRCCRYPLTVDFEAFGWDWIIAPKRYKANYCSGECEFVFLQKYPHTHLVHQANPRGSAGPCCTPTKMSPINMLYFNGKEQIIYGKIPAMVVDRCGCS
The test is described as follows: cell-based or functional assay.

Test [2] deals with T1, recombinant mature dimeric myostatin. The test is described as follows: ELISA, myostatin coated at 10 ng/well. The procedure: 10B3 and 10B3 chimera (10B3C) bound myostatin (R&D Systems, 788-G8-010/CF) in a sandwich ELISA. Plates were coated with myostatin at 10 ng/well and blocked with Block solution (PBS, 0.1% TWEEN and 1% BSA). Following washing (PBS, 0.1% TWEEN), antibody was incubated at 37° C. for 2 hours over a dilution series and plates washed again prior to incubation at 37° C. for 1 hour with anti-mouse HRP or anti-human HRP (Dako, P0161 & Sigma, A-8400, respectively). Plates were again washed and OPD substrate (Sigma, P9187) added until colourometric reaction occurred and the reaction stopped by the addition of H₂SO₄.
For orientation: An ELISA detects its analyte on a solid surface through an enzyme-linked reagent.

Test [3] addresses T2, myostatin artificial peptide No 1 (…) (N-terminus H-; C-terminus -NH2).
T2 construct: also called Peptide 1
The test is described as follows: SRU BIND biosensor, peptides captured on streptavidin plate. Here is the method: (§1) Work was carried out on an SRU BIND reader (SRU Biosystems). A streptavidin biosensor plate was washed, a baseline reading taken, and biotinylated peptides captured onto the streptavidin coated biosensor plate. The plate was washed again, and a new baseline reading taken, antibody was then added and binding monitored.

Test [4] has as its target T3, myostatin artificial peptide No 5 (SGSGHSTESRCCRYPLTV) (cysteine pairing not given here).
T3 construct: also called Peptide 5
T3 peptide: Biotin-SGSGHSTESRCCRYPLTV-NH2
The description is as above. The procedure: as §1

The target of test [5] is T4, myostatin artificial peptide No 13 (SGSGEAFGWDWIIAPKRY) (HELM PEPTIDE1{[O=C1N[C@H]2[C@H](CS[C@H]2CCCCC(=O)[*:2])N1].S.G.S.G.E.A.F.G.W.D.W.I.I.A.P.K.R.Y.[am]}$$$$V2.0; SMILES …).
T4 construct: also called Peptide 13
T4 peptide: SGSGEAFGWDWIIAPKRY
Described as above. The procedure:
as §1

The target of test [6] is T5, myostatin artificial peptide No 17 (SGSGIAPKRYKANYCSGE) (HELM PEPTIDE1{[O=C1N[C@H]2[C@H](CS[C@H]2CCCCC(=O)[*:2])N1].S.G.S.G.I.A.P.K.R.Y.K.A.N.Y.C.S.G.E.[am]}$$$$V2.0; SMILES …).
T5 construct: also called Peptide 17
T5 peptide: SGSGIAPKRYKANYCSGE
Described as above. Here is the method:
as §1

The target of test [7] is T6, myostatin artificial peptide No 19 (SGSGRYKANYCSGECEFV) (cysteine pairing not given here).
T6 construct: also called Peptide 19
T6 peptide: Biotin-SGSGRYKANYCSGECEFV-NH2
The test is described as above. The procedure:
as §1

Test [8] addresses T7, myostatin artificial peptide No 27 (SGSGQKYPHTHLVHQANP) (HELM PEPTIDE1{[O=C1N[C@H]2[C@H](CS[C@H]2CCCCC(=O)[*:2])N1].S.G.S.G.Q.K.Y.P.H.T.H.L.V.H.Q.A.N.P.[am]}$$$$V2.0; SMILES …).
T7 construct: also called Peptide 27
T7 peptide: SGSGQKYPHTHLVHQANP
The description is as above. Here is the method:
as §1

Test [9] has as its target T8, myostatin artificial peptide No 37 (SGSGCCTPTKMSPINMLY) (cysteine pairing not given here).
T8 construct: also called Peptide 37
T8 peptide: Biotin-SGSGCCTPTKMSPINMLY-NH2
Described as above. The procedure: as §1

In test [10] the target is T9, myostatin artificial peptide No 41 (SGSGPINMLYFNGKEQII) (HELM PEPTIDE1{[O=C1N[C@H]2[C@H](CS[C@H]2CCCCC(=O)[*:2])N1].S.G.S.G.P.I.N.M.L.Y.F.N.G.K.E.Q.I.I.[am]}$$$$V2.0; SMILES …).
T9 construct: also called Peptide 41
T9 peptide: SGSGPINMLYFNGKEQII
The description is as above. The procedure: as §1

* marks the point of attachment. Biotin = O=C1N[C@H]2[C@H](CS[C@H]2CCCCC(=O)*)N1

B1: mouse monoclonal antibody 10B3 (antibody, mouse IgG2a, V domains shown)
VH: EVQLQQSGPELVKPGASVKISCKASGYSFTGYFMHWVKQSHGNILDWIGNIYPYNGVSNYNQRFKAKATLTVDKSSSTAYMELRSLTSEDSAVYYCARRYYYGTGPADWYFDVWGTGTTVTVSS
VL: DIKMTQSPSSMYASLRERVTITCKASQDINSYLSWFQQKPGKSPKTLIYRANRLVDGVPSRFSGSGSGQDYSLTISSLEYEDMGIYYCLQCDEFPLTFGAGTKLELK
notes: Murine IgG2a/k; also called 10B3 mouse parental; parental 10B3
As for B1, the “IC50, myostatin responsive reporter gene neutralisation assay (A204)” value in test [1] came to 0.01 µM. Besides, the EC50 – broadly, the concentration that produces a half-maximal response – in test [2] is 0.069 mg/L. In addition, the binding result in test [3], in [4], in [5], in test [6], in [7] and in [8] was “no binding” each time. In addition, the binding result in [9] and in test [10] was “no binding” in each case.
